Data as given in patent US20150322119A1.

Legend:
[1] = biological target: murine FcγRIIB, soluble form (mouse) (UniProt P08101); test: SPR, equilibrium KD
[2] = biological target: murine FcγRIII, soluble form (mouse) (UniProt P08508); test: SPR, equilibrium KD
[3] = biological target: murine FcγRIV, soluble form (mouse); test: SPR, equilibrium KD
mouse FcRn (mouse) = mouse FcRn (mouse) (UniProt Q61559); test: SPR, FcRn coated on CM5 chip, antibody flowed at pH 6.0
[4] = biological target: murine FcγRI extracellular domain with C-terminal 6×His-tag (mouse) (UniProt P26151); test: SPR, equilibrium KD
Chain of UniProt P26151 (P26151 other isoform, or with tags, fused parts or gaps): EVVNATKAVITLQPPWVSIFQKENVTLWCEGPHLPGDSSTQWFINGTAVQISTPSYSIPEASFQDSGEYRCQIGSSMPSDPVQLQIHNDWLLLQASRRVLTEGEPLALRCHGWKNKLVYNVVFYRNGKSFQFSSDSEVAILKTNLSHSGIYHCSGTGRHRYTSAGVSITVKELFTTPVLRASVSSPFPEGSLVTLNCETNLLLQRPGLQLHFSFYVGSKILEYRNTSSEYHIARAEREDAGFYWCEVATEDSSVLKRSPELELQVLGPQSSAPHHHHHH

Chain of UniProt P08508 (P08508 31-215 limits assumed): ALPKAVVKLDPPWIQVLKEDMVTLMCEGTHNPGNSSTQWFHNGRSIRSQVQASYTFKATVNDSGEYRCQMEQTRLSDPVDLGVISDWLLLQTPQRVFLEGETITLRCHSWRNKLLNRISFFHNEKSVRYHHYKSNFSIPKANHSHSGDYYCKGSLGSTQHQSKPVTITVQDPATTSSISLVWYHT
Chain of UniProt Q61559 (Q61559 22-297 limits assumed): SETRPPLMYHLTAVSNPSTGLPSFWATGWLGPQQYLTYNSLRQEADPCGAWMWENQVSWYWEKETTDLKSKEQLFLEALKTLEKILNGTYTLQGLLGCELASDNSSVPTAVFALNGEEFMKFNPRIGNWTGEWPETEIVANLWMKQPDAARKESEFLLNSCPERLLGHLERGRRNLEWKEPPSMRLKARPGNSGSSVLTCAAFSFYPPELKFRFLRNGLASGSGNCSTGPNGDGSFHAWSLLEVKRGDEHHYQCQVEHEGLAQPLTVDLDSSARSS
Chain of mouse anti-mouse CTLA-4 antibody 9D9, mouse IgG2a isotype (P01863 whole entry): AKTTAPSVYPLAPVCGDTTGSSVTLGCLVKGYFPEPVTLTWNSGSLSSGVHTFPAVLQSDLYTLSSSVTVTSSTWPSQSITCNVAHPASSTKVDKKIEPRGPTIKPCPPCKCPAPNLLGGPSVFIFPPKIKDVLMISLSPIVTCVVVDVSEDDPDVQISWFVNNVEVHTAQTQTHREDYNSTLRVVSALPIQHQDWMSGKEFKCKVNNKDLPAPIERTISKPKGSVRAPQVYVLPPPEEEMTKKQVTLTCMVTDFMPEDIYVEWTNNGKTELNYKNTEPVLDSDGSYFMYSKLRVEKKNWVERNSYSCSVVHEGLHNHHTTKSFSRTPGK
Chain of UniProt P08101 (P08101 30-207 limits assumed): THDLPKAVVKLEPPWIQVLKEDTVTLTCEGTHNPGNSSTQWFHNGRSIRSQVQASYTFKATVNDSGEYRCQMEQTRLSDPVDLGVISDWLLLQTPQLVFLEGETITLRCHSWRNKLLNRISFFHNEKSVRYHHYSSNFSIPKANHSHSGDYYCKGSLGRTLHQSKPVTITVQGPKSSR

Row | Kd [1] | Kd [2] | Kd [3] | Kd (mouse FcRn (mouse)) | Kd [4] | Substance
1 | 748 nM | 2440 nM | 56.3 nM | 19.7 nM | – | mouse anti-mouse CTLA-4 antibody 9D9, mouse IgG2b isotype (original isotype, derived from the hybridoma)
2 | 479 nM | 1880 nM | – | 22.4 nM | – | mouse anti-mouse CTLA-4 antibody 9D9, mouse IgG1 isotype
3 | 1410 nM | 1500 nM | 29.4 nM | 13.5 nM | 32.7 nM | mouse anti-mouse CTLA-4 antibody 9D9, mouse IgG2a isotype
4 | – | – | – | 24.6 nM | – | mouse anti-mouse CTLA-4 antibody 9D9, mouse IgG1 isotype containing a D265A mutation (from UniProt P01868 1-324)
